Assay results from paper PMC5789857 (Nature Communications, 2018).

Target: TBEV envelope protein (E-protein), strain Hypr, in the purified virion (tick-borne encephalitis virus, strain …, UniProt Q01299)
Assay: cell-based or functional assay

B1: Fab fragment of neutralizing mouse monoclonal antibody 19/1786 (Fab, V domains shown)
VH: EVKLEESGGGLVQPGGSLKLSCAASGFTFSSYGMSWVRQTPDKRLELVAATNSDGDSTYYPDSVKGRFTISRDRAKNTLYLQMSSLKSEDTAMYYCTRVLYDYDGEFAYWGQGTLVTVSA
VL: DIVMTQSQKFMSTSVGDRVTVTCKASQNVGTNVAWYQQKPGQSPKGLIYSASYRYSGVPDRFIGSGSGTDFTLTISNVQSGDLAEYFCQQYNNHPLTFGAGTKLELK
  neutralisation of TBEV (cytolysis of porcine kidney stable cells), EC50: 35 µg/mL
